Results from US20230183352A1 (published 2023).

How the values were obtained:
[1] = target: T1, PD-L1 Protein, Human, Recombinant (His Tag) (human, UniProt Q9NZQ7 19-239); assay: SPR Biacore T200, antibody captured, PD-L1 His as analyte, 1:1 binding
T1 construct: Bought protein; also called QPP09.1; SinoBiologic 10084-H08H

[2] = target: T2, PD-L1 Protein, Cynomolgus, Recombinant (His Tag) (cynomolgus); assay: as above
T2 construct: Bought protein; also called QPP10.1; SinoBiologic 90251-C08H

T1 sequence (Q9NZQ7 19-239 limits assumed): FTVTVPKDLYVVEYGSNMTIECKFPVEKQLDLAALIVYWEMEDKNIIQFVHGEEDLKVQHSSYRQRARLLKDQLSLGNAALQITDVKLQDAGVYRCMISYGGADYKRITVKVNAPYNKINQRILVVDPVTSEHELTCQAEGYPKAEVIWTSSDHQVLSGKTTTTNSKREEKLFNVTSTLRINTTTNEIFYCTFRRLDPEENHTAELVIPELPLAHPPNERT

Kd [1]	koff [1]	kon [1]	Kd [2]	koff [2]	kon [2]	Binder
10.7 nM	0.004 s⁻¹	375000 M⁻¹ s⁻¹	19.6 nM	0.00416 s⁻¹	212000 M⁻¹ s⁻¹	QP325 (Fc fusion, Humanization design of QP1166; VHH-Fc; also called 1166-V3; QD325; not shown: human IgG1-FC constant region fused to the C terminal of the VHH) EVQLLESGGGLVQPGGSLRLSCAASGFTYGTYAMSWFRQAPGKGLEGVACIDIYGRTSYTDPVKGRFTISQDNSKNTLYLQMNSLRAEDTAVYYCAARDFGYCTASWVHEGFSRYWGQGTLVTVSS
2.63 nM	0.00255 s⁻¹	968000 M⁻¹ s⁻¹	5.6 nM	0.00266 s⁻¹	475000 M⁻¹ s⁻¹	QP1166 (Fc fusion, Chimeric antibody before humanization; also called QD1166; nanobody QP1166; not shown: Fc part: called chimeric antibody, cloned in vector VH-FC-pQD) QVQLVESGGDSVQPGGSLRLSCAASGFTYGTYAMSWFRQAPGKEREGVACIDIYGRTSYTDPVKGRFTISQDNAKNTLYLQMNSLKPEDTAMYYCAARDFGYCTASWVHEGFSRYWGQGTQVTVSS
2.77 nM	0.00379 s⁻¹	1.37e+06 M⁻¹ s⁻¹	5.6 nM	0.00401 s⁻¹	715000 M⁻¹ s⁻¹	QP1162 (Fc fusion, Chimeric antibody before humanization; also called QD1162; nanobody QP1162; not shown: Fc part: called chimeric antibody, cloned in vector VH-FC-pQD) QVQLVESGGGSVQSGGSLRLSCAASGFTYGTYAMSWFRQAPGKEREGVACIDIYGRASYTDPVKGRFTISQDNAKNTLYLQMNSLKPEDTAMYYCAARDFGYCTASWVHEGFSRYWGQGTQVTVSS
